Source: paper PMC5552742, “Kinetic and Structural Characterization of the Effects of Membrane on the Complex of Cytochrome b5 and Cytochrome c” (Scientific Reports, 2017)

What was measured:
Settings in all cases: both partners purified
[1] = target: T1, full-length rabbit cytochrome b5 (rabbit, UniProt P00169 1-134); assay: stopped-flow absorbance kinetics; cytb5 in nanodiscs; 25 °C, anaerobic; pre-reduced cytb5 mixed with ferric cyt c, final 6 uM cytb5 and 6.6 uM cyt c; micro-rates from numerical fit of the scheme binding (k1, k2) then electron transfer (k3)
T1 construct: Uniformly 15N-labelled where it is the observed protein in NMR, unlabelled otherwise; Ferric in NMR; reduced with dithionite (ferrous) for stopped flow; also called cytb 5; cytb5; source: E. coli C41, pLW01 plasmid, purified
T1 sequence (P00169 whole entry): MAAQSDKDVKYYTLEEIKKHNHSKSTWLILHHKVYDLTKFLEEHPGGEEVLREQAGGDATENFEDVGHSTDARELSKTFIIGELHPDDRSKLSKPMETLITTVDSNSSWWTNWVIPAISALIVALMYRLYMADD

[2] = target: T1, full-length rabbit cytochrome b5; assay: stopped-flow absorbance kinetics; cytb5 in DMPC/DHPC bicelles; 25 °C, anaerobic; pre-reduced cytb5 mixed with ferric cyt c, final 6 uM cytb5 and 6.6 uM cyt c; micro-rates from numerical fit of the scheme binding (k1, k2) then electron transfer (k3)
[3] = target: T1, full-length rabbit cytochrome b5; assay: stopped-flow absorbance kinetics; lipid-free cytb5; 25 °C, anaerobic; pre-reduced cytb5 mixed with ferric cyt c, final 6 uM cytb5 and 6.6 uM cyt c; micro-rates from numerical fit of the scheme binding (k1, k2) then electron transfer (k3); k2 fixed to zero

B1: equine cytochrome c (natural protein)
chain: not shown
notes: Unlabelled in the titrations into 15N-cytb5, in SEC/DLS and in stopped flow (ferric); uniformly 15N-labelled where it is the observed protein in NMR; also called cyt c; horse cyt c; source: obtained through a collaborator, prepared and purified as described previously; 15N-labeled form expressed and purified as reported in the literature
B1 was tested, and the koff [1] was 54.54 ± 0.35 s⁻¹, the koff [2] was 46.2 ± 0.86 s⁻¹ and the koff [3] was ~0 s⁻¹.
